Source: the RNAGym collection of RNA variant scans (doi:10.1073/pnas.2313332121)

B1: TPR t1 (parent)
chain: GACCAAUCUGCCCUCAGAGCUCGAGAACAUCUUCGGAUGCAGAGGAGGCAGGCUUCGGUGGCGCGAUAGCGCCAACGUCCUCAACCUCCAAUGCAUCCCACCACAUGAUGAUGCCUGAAGAGCCUUGGUUUUUUG

Variants of: B1
Experiment: polymerase ribozyme fitness, log enrichment relative to wild type (log ratio); higher = more active; in vitro selection for triplet polymerase activity
In short: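 One round of in vitro selection, in triplicate, was applied to PCR-built, transcribed mutant libraries of each subunit of a heterodimeric triplet polymerase ribozyme. The steps were annealing with a biotinylated primer, partner subunit and triplets, incubation frozen at −7 °C, gel excision of extended constructs, streptavidin-bead capture and RT-PCR. Fitness is the logarithm, base 2, of genotype enrichment over wild-type enrichment from inverse-variance-weighted replicate averages of Illumina-sequenced inputs and outputs, keeping genotypes with ≥10 input reads and ≥1 read per output.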

| Variant | polymerase ribozyme fitness (log ratio) |
| --- | --- |
| GACCAUUCCGCCCUCAGAGCUCGAGAACAUCUUCGGAUGCAGAGGAGGCAGGCUUCGGUCGCGCGAUAGCGCCAACGUCCUCAACCUCCAAUGCAUCCCACCACAUGAUGAUGCCUGAAGAGCCUUGGUUUUUUG [A6U U9C G60C] | -0.604 |
| GACCAUUCGGCCCUCAGAGCUCGAGAUCAUCUUAGGAUGCAGAUGAGGCAGGCUUCGGUGGCGUGAUAGCGCCAACGUCCUCAACCUCCAAUGCAUCCCACCACAUGAUGAUGCCUGAAGAGCCUUGGUUUUUUG [A6U U9G A27U C34A G44U C64U] | -6.87 |
| GACCAUUCUGCCCUCAGAGCUCGAGAACACCUUCGGAUGCAGAGGAGGCAGGCUUCGGUAGCGCGAUAGCGCCAACGUCCUCAACCUCCAAUGCAUCCCACCACAUGAUGAUGCCUGAAGAACCUUGGUUUUUUG [A6U U30C G60A G122A] | -5.6 |
| GACCAUUCUGCCCUCAGAGCUCGAGAACAUCUUCGGAAGCAGAGGAGGCAGGCUUCGGUGGCCCGAUAGCGCCAACGUUCUCAGCCUCUAAUGCAUCCCACCACAUGAUGAUGCCUGAAGAGCCUUGGUUUUUUG [A6U U38A G63C C79U A84G C89U] | -3.61 |
| GACCAUUCUGCCCUCAGAGCUCGAGAACAUCUUCGGAUGCAGAGGAGGCAGGCAUCGGUGGUGCGAUAGCGCCAACGUCCUCAACCUCCAAUGCAUCCCACCACAUGAUGAUGCCUGAAGAGCCUUGGUUUUUUG [A6U U54A C62U] | 0.317 |
| GACCAUUCUGCCCUCAGAGCUCGAGAACAUCUUCGGAUGCAGAGGAGGCAGGCCUCGGUGGCGCGAUAGCGCCAACGUCCUCAACCUCCAAUGCAUCCCACCACAUGAUGAUGCCUGAAGAGCCUUGGUUUUUUG [A6U U54C] | 0.558 |
| GACCAUUCUGCCCUCAGAGCUCGAGAACAUCUUCGGAUGCAGAGGAGGCAGGCUUCGGCGGCGCGAUAGCGCCAACGUCCUCAACCUCCAAUGCAUCCCACCACAUGAUGAUGCCUGAGGAGCCUUGGUUUUUUG [A6U U59C A119G] | 0.571 |
| GACCAUUCUGCCCUCAGAGCUCGAGAACAUCUUCGGAUGCAGAGGAGGCAGGCUUCGGUGGCGCGAUAGCGCCAACGUCCUCAACCCCCAAUGCAGCCCACCACAUGAUGAUGCCUGAAAACCCUUGGUUUUUUG [A6U U87C U96G G120A G122C] | 0.592 |
| GACCAUUCUGCCCUCAGAGCUCGAGAACAUCUUCGGAUGCAGAGGAGGCAGGCUUCGGUGGCGCGAUAGCGCCAACGUCCUCAACCUCCAAAGCAUCCCACCACAUGAUGAUGCCUUAAGAGCCUUGGUUUUUUG [A6U U92A G117U] | -5.86 |
| GACCAUUCUGCCCUCAGAGCUCGAGAACAUCUUCGGAUGCAGAGGAGGCAGGCUUCGGUGGCGCGAUAGCGCCAACGUCCUCAACCUCCAAUGCACCCCACCACAUGAUGAUGCCUGAAGAGCCUUGGUUUUUUG [A6U U96C] | -0.215 |
| GACCAUUCUGCCCUCAGAGCUCGAGAACAUCUUCGGAUGCAGAGGAGGCAGGCUUCGGUGGCGCGAUAGCGCCAACGUCCUCAACCUCCAAUGCAUCCCACCACAAGAUGAUGCCUGAAGAGCCUUGGUUUUUUG [A6U U106A] | -0.188 |
| GACCAUUCUGCCCUCAGAGCUCGAGAACAUCUUCGGAUGCAGAGGAGGCAGGCUUCGGUGGCGCGAUAGCGCCAACGUCCUCAACCUCCAAUGCAUCCCACCACAAGAUGAUGCCAGAAGAGCCUUGGUUUUUUG [A6U U106A U116A] | -2.08 |
| GACCAUUCUGCCCUCAGAGCUCGAGAACAUCUUCGGAUGCAGAGGAGGCAGGCUUCGGUGGCGCGAUAGCGCCAACGUCCUCAACCUCCAAUGCAUCCCACCACAGGAUGAUCCCUGAAGAGCCUUGGUUUUUUG [A6U U106G G113C] | -3.9 |
| GACCAUUCUGCCCUCAGAGCUCGAGAACAUCUUCGGAUGCAGAGGAGGCAGGCUUCGGUGGCGCGAUAGCGCCAACGUCCUCAACCUCCAAUGCAUCCCACCACAUGAUGAGGCCUGAAGAGCCUUGGUAUUUUG [A6U U112G U130A] | 0.321 |
| GACCAAACUGCCCUCAGUGCUCGAGAACAUCUUCGGAUGCAGAGGAGGCAGGCUUCGGUGGCGCGAUAGCACCAACGUCCUCAACCUCCAAUGCAUCCCACCACAUGAUGAUGCCUGAUGAUCCUUGGUUUUUUU [U7A A18U G71A A119U G122U G135U] | -5.8 |
| GACCAAACUGCCCUCAGUGCUCGAGAACAUCUUCGGAUGCAGAGGAGGCAGGCUUCGGCGGCGCGAUAGCGCCAACGUCCUCAACCUCCAAUGCAUCCCACCACAUGAUGAUGCCUGAAGAGCCUUGGUUUUUUG [U7A A18U U59C] | -2.69 |
| GACCAAACUGCCCUCAGAGCUCGCGAACAUCUUCGGAUGGAGAGGAGGCAGGCUUCGGUGGCGCGAUAGCGCCAACGUCCUCAACCUCCAAUUCAUCCCACCACAUGAUGAAGCCUGAAGAGUCUUGGUUUUUUG [U7A A24C C40G G93U U112A C123U] | -5.82 |
| GACCAAACUGCCCUCAGAGCUCGAGACCAUCUUCGGAUGCAGAGGAGGUAGGCUGCGGUGGCGCGAUAGCGCCAACGUCCUCAACCUCCAAUGCAUCCCACCACAUGAUGAUGCCUGAAGAGCCUUGGUUUUUUG [U7A A27C C49U U55G] | -4.4 |
| GACCAAACUGCCCUCAGAGCUCGAGAACUUCUUCGGAUGCAGAGGAGGCAGGCUUCGGUGGCGCGAUAGCGUCAACGUCCUCAACCUCCAAUGCAUCCCACCACAAGAUGAUGCCUGAAGAGCCUUGGUUUUUUG [U7A A29U C72U U106A] | -1.06 |
| GACCAAACUGCCCUCAGAGCUCGAGAACUUCUUCGGAUGCAGAGGAGGCAGGCUUCGGUUGCGCGAUAGCGCCAACGUCCUCAACCUCCAAUGCAUUCCACCACAUGAUGAUCCCUGAAUAGCCUUGGUUUUAUG [U7A A29U G60U C97U G113C G120U U133A] | -4.07 |
| GACCAAACUGCCCUCAGAGCUCGAGAACAUCUUCGGGUGCAGAGGAGGCAGACUUGGGUGGCGCGAUAGCGCCAACGUCCUCAACCUCCAAUGCAUCCCACCACAUGAUGAUGCCUGAAUAGCCUUGGUUUUUUG [U7A A37G G52A C56G G120U] | -0.68 |
